{"source": "paper PMC4330386", "about": "(Nucleic Acids Research, 2015)", "binders": {"B1": {"name": "GST-Rad27 (natural protein, yeast, UniProt P26793 1-382, looked up)", "chain": "MGIKGLNAIISEHVPSAIRKSDIKSFFGRKVAIDASMSLYQFLIAVRQQDGGQLTNEAGETTSHLMGMFYRTLRMIDNGIKPCYVFDGKPPDLKSHELTKRSSRRVETEKKLAEATTELEKMKQERRLVKVSKEHNEEAQKLLGLMGIPYIIAPTEAEAQCAELAKKGKVYAAASEDMDTLCYRTPFLLRHLTFSEAKKEPIHEIDTELVLRGLDLTIEQFVDLCIMLGCDYCESIRGVGPVTALKLIKTHGSIEKIVEFIESGESNNTKWKIPEDWPYKQARMLFLDPEVIDGNEINLKWSPPKEKELIEYLCDDKKFSEERVKSGISRLKKGLKSGIQGRLDGFFQVVPKTKEQLAAAAKRAQENKKLNKNKNKVTKGRR"}, "B2": {"name": "Mms4_(Δ40N) (domain or fragment, budding yeast, UniProt P38257 41-691, looked up)", "chain": "ECKRAHVSSAEMIPSSPQRKSVSNDVENVDLNKSIELSAPFFQDISISKLDDFSTTVNSIIDSSLRNENNAKGNAKKLLDDLISDEWSADLESSGKKHNKSQYNLRDIAEKWGVQSLKNPEPIAVDCEYKTQGIGKTNSDISDSPKSQIGAADILFDFPLSPVKHENPTEEKHNSIANENSSPDNSLKPAGKQNHGEDGTSMAKRVYNKGEDEQEHLPKGKKRTIALSRTLINSTKLPDTVELNLSKFLDSSDSITTDVLSTPAKGSNIVRTGSQPIFSNANCFQEAKRSKTLTAEDPKCTKNTAREVSQLENYIAYGQYYTREDSKNKIRHLLKENKNAFKRVNQIYRDNIKARSQMIIEFSPSLLQLFKKGDSDLQQQLAPAVVQSSYNDSMPLLRFLRKCDSIYDFSNDFYYPCDPKIVEENVLILYYDAQEFFEQYTSQKKELYRKIRFFSKNGKHVILILSDINKLKRAIFQLENEKYKARVEQRLSGTEEALRPRSKKSSQVGKLGIKKFDLEQRLRFIDREWHVKIHTVNSHMEFINSLPNLVSLIGKQRMDPAIRYMKYAHLNVKSAQDSTETLKKTFHQIGRMPEMKANNVVSLYPSFQSLLEDIEKGRLQSDNEGKYLMTEAVEKRLYKLFTCTDPNDTIE"}, "B3": {"name": "Mms4 of the wild-type Mus81–Mms4 complex (natural protein, budding yeast, UniProt P38257 1-691, looked up)", "chain": "MSQIVDFVEDKDSRNDASIQIIDGPSNVEIIALSESMDQDECKRAHVSSAEMIPSSPQRKSVSNDVENVDLNKSIELSAPFFQDISISKLDDFSTTVNSIIDSSLRNENNAKGNAKKLLDDLISDEWSADLESSGKKHNKSQYNLRDIAEKWGVQSLKNPEPIAVDCEYKTQGIGKTNSDISDSPKSQIGAADILFDFPLSPVKHENPTEEKHNSIANENSSPDNSLKPAGKQNHGEDGTSMAKRVYNKGEDEQEHLPKGKKRTIALSRTLINSTKLPDTVELNLSKFLDSSDSITTDVLSTPAKGSNIVRTGSQPIFSNANCFQEAKRSKTLTAEDPKCTKNTAREVSQLENYIAYGQYYTREDSKNKIRHLLKENKNAFKRVNQIYRDNIKARSQMIIEFSPSLLQLFKKGDSDLQQQLAPAVVQSSYNDSMPLLRFLRKCDSIYDFSNDFYYPCDPKIVEENVLILYYDAQEFFEQYTSQKKELYRKIRFFSKNGKHVILILSDINKLKRAIFQLENEKYKARVEQRLSGTEEALRPRSKKSSQVGKLGIKKFDLEQRLRFIDREWHVKIHTVNSHMEFINSLPNLVSLIGKQRMDPAIRYMKYAHLNVKSAQDSTETLKKTFHQIGRMPEMKANNVVSLYPSFQSLLEDIEKGRLQSDNEGKYLMTEAVEKRLYKLFTCTDPNDTIE"}}, "assay_in_all_cases": "cell-based or functional assay", "key": {"[1]": {"molecular_target": "T1, Mus81_(Δ21–22) of Mus81_(Δ21–22)–Mms4_(Δ40N) (S. cerevisiae, UniProt Q04149 1-632, Δ21–22)", "T1 sequence (looked up)": "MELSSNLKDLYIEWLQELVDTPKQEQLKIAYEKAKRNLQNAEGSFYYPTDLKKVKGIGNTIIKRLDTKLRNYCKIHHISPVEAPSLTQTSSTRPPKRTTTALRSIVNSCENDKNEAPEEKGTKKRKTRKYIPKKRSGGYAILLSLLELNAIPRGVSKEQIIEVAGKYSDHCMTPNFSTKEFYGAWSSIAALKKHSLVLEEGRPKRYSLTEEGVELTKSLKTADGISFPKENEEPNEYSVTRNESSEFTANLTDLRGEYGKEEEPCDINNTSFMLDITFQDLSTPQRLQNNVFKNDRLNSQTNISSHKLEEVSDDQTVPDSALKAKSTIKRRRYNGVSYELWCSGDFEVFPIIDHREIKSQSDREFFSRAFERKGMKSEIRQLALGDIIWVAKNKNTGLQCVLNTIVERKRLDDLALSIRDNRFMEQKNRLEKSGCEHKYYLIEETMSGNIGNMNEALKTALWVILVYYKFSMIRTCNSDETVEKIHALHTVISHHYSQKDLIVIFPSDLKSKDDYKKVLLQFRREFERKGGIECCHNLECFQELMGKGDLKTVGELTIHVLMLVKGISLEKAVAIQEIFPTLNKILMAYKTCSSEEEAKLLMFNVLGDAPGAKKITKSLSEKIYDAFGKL"}, "[2]": {"molecular_target": "T2, Mus81_(Δ21–24) of Mus81_(Δ21–24)–Mms4_(Δ40N) (S. cerevisiae, UniProt Q04149 1-632, Δ21–24)", "T2 sequence (looked up)": "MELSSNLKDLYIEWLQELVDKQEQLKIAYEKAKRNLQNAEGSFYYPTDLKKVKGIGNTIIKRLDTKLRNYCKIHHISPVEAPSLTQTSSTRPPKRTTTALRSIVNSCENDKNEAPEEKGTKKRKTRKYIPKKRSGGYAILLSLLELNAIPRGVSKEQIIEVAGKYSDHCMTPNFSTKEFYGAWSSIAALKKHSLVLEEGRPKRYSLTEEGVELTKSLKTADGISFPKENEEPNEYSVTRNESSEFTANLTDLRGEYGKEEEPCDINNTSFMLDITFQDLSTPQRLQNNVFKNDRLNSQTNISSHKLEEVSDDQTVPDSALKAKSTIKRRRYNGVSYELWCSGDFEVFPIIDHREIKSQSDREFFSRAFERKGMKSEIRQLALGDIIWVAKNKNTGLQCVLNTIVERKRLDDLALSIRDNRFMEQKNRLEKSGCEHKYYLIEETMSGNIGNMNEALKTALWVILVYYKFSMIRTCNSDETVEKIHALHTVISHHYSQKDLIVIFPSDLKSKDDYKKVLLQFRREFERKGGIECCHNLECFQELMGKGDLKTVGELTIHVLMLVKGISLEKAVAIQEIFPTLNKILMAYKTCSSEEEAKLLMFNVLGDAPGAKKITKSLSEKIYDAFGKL"}, "GST-Rad27": {"molecular_target": "B1"}}}
{"binder": "B1", "values": [{"measurement": "extent of stimulation by Rad27 of the endonuclease activity of Mus81_(Δ21–22)–Mms4_(Δ40N) on 3′F substrate, over increasing amounts of Rad27 (∼5–12-fold)", "setting": "[1]", "result": "~12", "unit": "fold"}, {"measurement": "extent of stimulation by Rad27 of the endonuclease activity of Mus81_(Δ21–24)–Mms4_(Δ40N) on 3′F substrate, over increasing amounts of Rad27 (∼3–6-fold)", "setting": "[2]", "result": "~6", "unit": "fold"}]}
{"binder": "B2", "values": [{"measurement": "stimulation of Rad27 (0.1 fmol) cleavage of 5′DF substrate by the Mus81–Mms4_(Δ40N) and Mus81_(Δ120N)–Mms4_(Δ40N) complexes (0, 25, 50 fmol; ∼2–4 fold told of the Mus81 complexes)", "setting": "GST-Rad27", "result": "2 to 4", "unit": "fold"}]}
{"binder": "B3", "values": [{"measurement": "stimulation of Rad27 (0.1 fmol) cleavage of 5′DF substrate by the Mus81–Mms4 complex (0, 25, 50 fmol; ∼2–4 fold told of the Mus81 complexes)", "setting": "GST-Rad27", "result": "2 to 4", "unit": "fold"}]}
